The target of assay [1] is T1, Recombinant Human IL-1β (human, UniProt P01584 117-269).
T1 construct: also called IL-1b
As to the kind of experiment: SPR (BIAcore); *off-rate at the limit of dissociation after 1 hour.
Experimental: The BIAcore® assay (BIAcore®, Inc, Piscataway, N.J.) determines the affinity of antibodies with kinetic measurements of on-rate and off-rate constants. Binding of antibodies to a target antigen (for example, a purified recombinant target antigen) is determined by surface plasmon resonance-based measurements with a BIAcore® 1000 or 3000 instrument (BIAcore® AB, Uppsala, Sweden) using running HBS-EP (10 mM HEPES [pH 7.4], 150 mM NaCl, 3 mM EDTA, and 0.005% surfactant P20) at 25° C. […] Unreacted moieties on the biosensor surface are blocked with ethanolamine. Modified carboxymethyl dextran surface in flowcell 2 and 4 is used as a reaction surface. Unmodified carboxymethyl dextran without goat anti-mouse IgG in flow cell 1 and 3 is used as the reference surface. […] The association and dissociation rate constants, kₒₙ (M⁻¹s⁻¹) and koff (s⁻¹), are determined under a continuous flow rate of 25 μl/minute. […] The equilibrium dissociation constant (M) of the reaction between antibodies and the target antigen is then calculated from the kinetic rate constants by the following formula: KD=koff/kₒₙ. Binding is recorded as a function of time and kinetic rate constants are calculated.

Assay [2] addresses T1, Recombinant Human IL-1β. As to the kind of experiment: SPR (BIAcore). (In general: In SPR one partner is held on a chip, and binding of the other changes the refractive index at the surface.)
Experimental: (§1) The BIAcore® assay (BIAcore®, Inc, Piscataway, N.J.) determines the affinity of antibodies with kinetic measurements of on-rate and off-rate constants. Binding of antibodies to a target antigen (for example, a purified recombinant target antigen) is determined by surface plasmon resonance-based measurements with a BIAcore® 1000 or 3000 instrument (BIAcore® AB, Uppsala, Sweden) using running HBS-EP (10 mM HEPES [pH 7.4], 150 mM NaCl, 3 mM EDTA, and 0.005% surfactant P20) at 25° C. […] Unreacted moieties on the biosensor surface are blocked with ethanolamine. Modified carboxymethyl dextran surface in flowcell 2 and 4 is used as a reaction surface. Unmodified carboxymethyl dextran without goat anti-mouse IgG in flow cell 1 and 3 is used as the reference surface. For kinetic analysis, rate equations derived from the 1:1 Langmuir binding model are fitted simultaneously to association and dissociation phases of all eight injections (using global fit analysis) with the use of Biaevaluation 4.0.1 software. Purified antibodies are diluted in HEPES-buffered saline for capture across goat anti-mouse IgG specific reaction surfaces. […] The association and dissociation rate constants, kₒₙ (M⁻¹s⁻¹) and koff (s⁻¹), are determined under a continuous flow rate of 25 μl/minute. Rate constants are derived by making kinetic binding measurements at different antigen concentrations ranging from 10-200 nM. The equilibrium dissociation constant (M) of the reaction between antibodies and the target antigen is then calculated from the kinetic rate constants by the following formula: KD=koff/kₒₙ. Binding is recorded as a function of time and kinetic rate constants are calculated.
For assay [3], the target named is T1, Recombinant Human IL-1β. As to the kind of experiment: cell-based or functional assay.
Assay [4] concerns the target T2, human IL-12 (human, UniProt P29459 23-219; P29460 23-328).
T2 sequence (looked up) 1: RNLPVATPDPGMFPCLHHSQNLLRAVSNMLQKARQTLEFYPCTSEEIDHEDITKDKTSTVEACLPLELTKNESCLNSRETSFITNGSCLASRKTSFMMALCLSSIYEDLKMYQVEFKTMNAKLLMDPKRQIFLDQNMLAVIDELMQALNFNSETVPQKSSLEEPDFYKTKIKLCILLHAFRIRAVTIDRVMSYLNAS
T2 sequence (looked up) 2: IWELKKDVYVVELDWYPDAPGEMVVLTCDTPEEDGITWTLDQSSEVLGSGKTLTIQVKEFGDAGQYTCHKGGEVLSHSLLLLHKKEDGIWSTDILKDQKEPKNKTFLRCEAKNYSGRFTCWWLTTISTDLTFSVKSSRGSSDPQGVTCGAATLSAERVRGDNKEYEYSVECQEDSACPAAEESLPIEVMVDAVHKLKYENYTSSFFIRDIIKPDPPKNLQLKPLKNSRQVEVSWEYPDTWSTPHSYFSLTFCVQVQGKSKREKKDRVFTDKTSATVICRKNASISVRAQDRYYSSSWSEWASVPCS
As to the kind of experiment: cell-based or functional assay.

In assay [5] the target is T3, recombinant human IL-18 (human, UniProt Q14116 37-193). As to the kind of experiment: cell-based or functional assay.
Assay [6] addresses T2, human IL-12. As to the kind of experiment: SPR (BIAcore).
Experimental: as §1
Assay [7] addresses T3, recombinant human IL-18. As to the kind of experiment: SPR (BIAcore).
Experimental: as §1
In assay [8] the target is T4, cell surface CD28 on Jurkat E6-1 cells (UniProt P10747 19-220, limits assumed).
T4 construct: whole, on cells; Jurkat is a human cell line
As to the kind of experiment: flow cytometry on Jurkat E6-1 cells. In general terms: Flow cytometry measures light scatter and fluorescence of single cells or particles in a stream.
Experimental: Jurkat E6-1 cells (ATCC, Manassas, Va.) were harvested and washed with PBS, and resuspended in ice cold PBS with 10% FCS (GIBCO®) at 2×10⁷ cells/ml. Anti-CD28 antibodies or half-Ig binding protein (1 μl) was added to tubes containing 100 μl of cell suspension, then incubated on ice for 30 min. The cells were washed 3 times and resuspended in ice cold PBS, then stained with PE labeled anti-human IgG1 antibody (Southern Biotech, Birmingham, Ala.) according to manufacturer's instructions. After secondary staining, the cells were washed and resuspended in ice cold PBS with 10% FCS. FACS analysis was performed on a FACScan (Becton Dickinson, Franklin Lakes, N.J.).

The target of assay [9] is T5, biotin-labeled c-Met (UniProt P08581 25-932, limits assumed, biotin-labeled). As to the kind of experiment: ELISA, biotin-labeled c-Met detected with streptavidin-HRP; parental full antibody. In general terms: ELISA stands for enzyme-linked immunosorbent assay.
Experimental: (§2) c-Met binding ELISA was performed to characterize the antigen binding property of anti-c-Met half-Igs. 96-well ELISA plates were coated with 100 μl/well 5 μg/ml anti-mouse IgG Fc in PBS at 4° C. overnight. After 3 washes with PBS/0.05% Tween®20, the plates were blocked with 5% milk in PBS for 1 hour at room temperature. After another 3 washes with PBS/0.05% Tween®20, 100 μl c-Met antibody or half-Ig was added to each well followed by an incubation of 1 hour at room temperature. Binding biotin-labeled c-Met was detected by Streptavidin-horseradish peroxidase (KPL, Gaithersburg, Md.) and tetramethylbenzidine (Thermo Scientific, Rockford, Ill.). Final absorbances were acquired at 450 nm after stopping the reactions with 2 mol/L H₂SO₄.
In assay [10] the target is T6, Neonatal Fc receptor (FcRn) on CHO-FcRnGPI cells.
T6 construct: whole, on cells; also called FcRn receptor
As to the kind of experiment: flow cytometry on CHO-FcRnGPI cells, pH 6.4.
Experimental: CHO-FcRnGPI cells (Stable FcRn receptor expressor) and CHO-pBudl l cells (non-FcRn expressor) were aliquotted into 96-well plates at 1×10⁵ cells/well. Cells were resuspended in 150 μl FACS buffer. Anti-c-Met Ab and half-Ig binding proteins were diluted to 100 μg/ml in FACS buffer pH 6.4 and pH 7.4. 30 μl of diluted antibody or half-Ig binding protein was added to each well and incubated on ice for 1 hour. Following 2 washes with FACS buffer, 50 μl of secondary antibody R-phycoerythrin-conjugated AfiniPure F(ab′)₂ Fragment goat anti-human IgG (Jackson ImmunoResearch®, West Grove, Pa.) diluted in FACS buffer pH 6.4 or pH7.4 was added. The mixture was incubated for 30 min on ice. The cells were resuspended in 100 μl PBS with 1% FBS (Invitrogen®, Carlsbad, Calif.) and 2 μg/ml propidium iodide (Invitrogen®, Carlsbad, Calif.) of the corresponding pH. Final FACS data were acquired on a FACScan (Becton Dickinson, Franklin Lakes, N.J.).

Assay [11] deals with T5, biotin-labeled c-Met. As to the kind of experiment: ELISA, biotin-labeled c-Met detected with streptavidin-HRP; half-Ig (cMet-Mut6).
Experimental: as §2
For assay [12], the target named is Recombinant Human TNF-α/TNFSF1A (human, UniProt P01375 77-233). As to the kind of experiment: SPR (BIAcore).
Recombinant Human TNF-α/TNFSF1A, sequence (P01375 77-233 limits assumed): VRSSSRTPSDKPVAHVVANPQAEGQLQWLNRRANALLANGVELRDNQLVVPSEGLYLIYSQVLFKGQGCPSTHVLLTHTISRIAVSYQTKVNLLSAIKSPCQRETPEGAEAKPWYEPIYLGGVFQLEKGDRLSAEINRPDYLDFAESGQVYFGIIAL
Experimental: as §1

T5 sequence (P08581 25-932 limits assumed): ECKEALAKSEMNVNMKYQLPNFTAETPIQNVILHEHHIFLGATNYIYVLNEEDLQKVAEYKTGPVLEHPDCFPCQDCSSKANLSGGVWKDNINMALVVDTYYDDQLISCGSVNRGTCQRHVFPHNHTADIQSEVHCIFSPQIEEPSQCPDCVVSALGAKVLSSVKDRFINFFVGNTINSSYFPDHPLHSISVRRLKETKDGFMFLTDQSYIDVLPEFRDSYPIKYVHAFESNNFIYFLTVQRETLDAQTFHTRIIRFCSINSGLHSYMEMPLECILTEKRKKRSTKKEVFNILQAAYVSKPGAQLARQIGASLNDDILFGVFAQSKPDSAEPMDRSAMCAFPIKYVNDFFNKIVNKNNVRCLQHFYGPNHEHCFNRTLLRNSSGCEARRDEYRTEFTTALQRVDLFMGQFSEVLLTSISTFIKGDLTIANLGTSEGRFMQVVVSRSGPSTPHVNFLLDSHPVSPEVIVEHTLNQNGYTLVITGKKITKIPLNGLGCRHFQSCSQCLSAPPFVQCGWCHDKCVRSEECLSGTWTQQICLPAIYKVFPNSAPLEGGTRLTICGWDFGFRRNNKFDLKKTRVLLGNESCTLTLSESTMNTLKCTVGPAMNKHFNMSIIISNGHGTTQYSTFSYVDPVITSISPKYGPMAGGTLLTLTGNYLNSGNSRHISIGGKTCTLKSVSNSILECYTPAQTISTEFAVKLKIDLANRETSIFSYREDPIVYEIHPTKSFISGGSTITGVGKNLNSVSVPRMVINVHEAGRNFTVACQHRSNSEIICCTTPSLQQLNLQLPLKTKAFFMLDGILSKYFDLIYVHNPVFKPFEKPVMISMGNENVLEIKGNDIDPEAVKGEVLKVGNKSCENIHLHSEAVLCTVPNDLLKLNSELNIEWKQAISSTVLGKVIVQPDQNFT
T6 sequence (P55899 24-297, chain 1 of 2): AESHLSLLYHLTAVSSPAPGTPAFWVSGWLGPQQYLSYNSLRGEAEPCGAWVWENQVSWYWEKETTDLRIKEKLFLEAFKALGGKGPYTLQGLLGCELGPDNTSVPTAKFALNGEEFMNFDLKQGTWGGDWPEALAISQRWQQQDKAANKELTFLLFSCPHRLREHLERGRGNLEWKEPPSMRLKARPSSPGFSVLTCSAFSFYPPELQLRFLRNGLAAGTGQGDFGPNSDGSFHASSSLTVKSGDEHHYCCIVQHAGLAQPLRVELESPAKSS
T6 sequence (P61769 21-119, chain 2 of 2, further chain): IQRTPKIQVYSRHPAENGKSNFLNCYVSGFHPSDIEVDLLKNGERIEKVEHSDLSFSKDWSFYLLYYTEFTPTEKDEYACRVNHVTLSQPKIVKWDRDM

B1: ½ IL1b DA1 Fc (Fc fusion)
chain: EVQLLESGGGLVQPGGSLRLSCAASGFTFADEGMMWVRQAPGKGLEWVSRITYSGKNTYYADSVKGRFTISRDNSKNTLYLQMNSLRAEDTAVYYCAKYTGRILGHHLFDYWGQGTLVTVSSEPKSSDKTHTSPPSPAPELLGGPSVFLFPPKPKDTLMISRTPEVTCVVVDVSHEDPEVKFNWYVDGVEVHNAKTKPREEQYNSTYRVVSVLTVLHQDWLNGKEYKCKVSNKALPAPIEKTISKAKGQPREPQVYTLPPSREEMTKNQVSLTCLVKGFYPSDIAVEWESNGQPENNYKTTPPVLDSDGSFRLYSKLTVDKSRWQQGNVFSCSVMHEALHNHYTQKSLSLSPGK
notes: Half domain antibody-Fc with Fc-Mut18; 82 % half-Ig by SEC; also called half IL1b DA1 Fc
The term koff denotes the first-order rate constant of dissociation. A word on the Kd: it is the equilibrium constant for the complex coming apart. A word on the kon: it is the second-order rate constant of association. Turning to B1, the koff in the assay with Recombinant Human IL-1β [1] is 6.4e-06 s⁻¹. In addition, in the assay with Recombinant Human IL-1β [2], the Kd amounted to 0.053 nM and the kon turned out to be 120000 M⁻¹ s⁻¹. For the same molecule, the “IL-1β Neutralization Assay EC50 nM; IL-8 release from MRC5 cells” value in the assay with Recombinant Human IL-1β [3] worked out at 0.155 nM.

B2: ½ IL12/IL18/PGE2 TVD (other)
heavy: EVTLRESGPALVKPTQTLTLTCTFSGFSLSKSVMGVSWIRQPPGKALEWLAHIYWDDDKYYNPSLKSRLTISKDTSKNQVVLTMTNMDPVDTATYYCARRGIRSAMDYWGQGTTVTVSSASTKGPEVQLVQSGTEVKKPGESLKISCKGSGYTVTSYWIGWVRQMPGKGLEWMGFIYPGDSETRYSPTFQGQVTISADKSFNTAFLQWSSLKASDTAMYYCARVGSGWYPYTFDIWGQGTMVTVSSASTKGPEVQLVQSGAEVKKPGASVKVSCKASGYTFTKYWLGWVRQAPGQGLEWMGDIYPGYDYTHYNEKFKDRVTLTTDTSTSTAYMELRSLRSDDTAVYYCARSDGSSTYWGQGTLVTVSSASTKGPSVFPLAPSSKSTSGGTAALGCLVKDYFPEPVTVSWNSGALTSGVHTFPAVLQSSGLYSLSSVVTVPSSSLGTQTYICNVNHKPSNTKVDKKVEPKSCDKTHTSPPSPAPELLGGPSVFLFPPKPKDTLMISRTPEVTCVVVDVSHEDPEVKFNWYVDGVEVHNAKTKPREEQYNSTYRVVSVLTVLHQDWLNGKEYKCKVSNKALPAPIEKTISKAKGQPREPQVYTLPPSREEMTKNQVSLTCLVKGFYPSDIAVEWESNGQPENNYKTTPPVLDSDGSFRLYSKLTVDKSRWQQGNVFSCSVMHEALHNHYTQKSLSLSPGK
light: DIVMTQSPDSLAVSLGERATINCKASQSVSNDVAWYQQKPGQPPKLLIYYASNRYTGVPDRFSGSGSGTDFTLTISSLQAEDVAVYYCQQDYNSPWTFGGGTKVEIKRTVAAPEIVMTQSPATLSVSPGERATLSCRASESISSNLAWYQQKPGQAPRLFIYTASTRATDIPARFSGSGSGTEFTLTISSLQSEDFAVYYCQQYNNWPSITFGQGTRLEIKRTVAAPDVLMTQTPLSLPVTPGEPASISCTSSQNIVHSNGNTYLEWYLQKPGQSPQLLIYKVSNRFSGVPDRFSGSGSGTDFTLKISRVEAEDVGVYYCFQVSHVPYTFGGGTKVEIKRTVAAPSVFIFPPSDEQLKSGTASVVCLLNNFYPREAKVQWKVDNALQSGNSQESVTEQDSKDSTYSLSSTLTLSKADYEKHKVYACEVTHQGLSSPVTKSFNRGEC
notes: Half TVD with hCg1-Mut18 (F405R, C226S, C229S); 78 % by SEC; also called Half IL12/IL18/PGE2 TVD; IL12/IL18/PGE2 TVD half-Ig
Take B2: the “Neutralization of IL-12 IC50 (nM); IFN-γ release from PHA blast cells” value in the assay with human IL-12 [4] came out at 12.5 nM. The “Neutralization of IL-18 IC50 (nM); IFN-γ release from KG-1 cells” value with recombinant human IL-18 [5] turned out to be 0.918 nM. In the assay with human IL-12 [6], this molecule registered a Kd of 0.13 nM, a dissociation rate constant (koff) of 5.1e-05 s⁻¹ and a kon of 400000 M⁻¹ s⁻¹. In the assay with recombinant human IL-18 [7], the Kd turned out to be 0.44 nM, the koff was found to be 5.9e-05 s⁻¹ and the kon was 130000 M⁻¹ s⁻¹.

B3: Anti-CD28 Ig (parental antibody 9.3) (antibody, human IgG1, kappa, V domains shown)
VH: QVKLQQSGAELVKPGASVRLSCKASGYTFTEYIIHWIKLRSGQGLEWIGWFYPGSNDIQYNAKFKGKATLTADKSSSTVYMELTGLTSEDSAVYFCARRDDFSGYDALPYWGQGTMVTVSS
VL: DIQMTQSPASLSVSVGETVTITCRTNENIYSNLAWYQQKQGKSPQLLIYAATHLVEGVPSRFSGSGSGTQYSLKITSLQSEDFGNYYCQHFWGTPCTFGGGTKLEIKR
notes: 9.3 variable domains on human Cg1 (z, non-a) and human Ck; also called anti-CD28 antibody 9.3
Consider B3, for which, in [8], the binding result was “binds”.

B4: Anti-c-Met Ig (parental 5D5 anti-cMet antibody) (antibody, human IgG1, kappa)
heavy: not shown
light: DFMMSQSPSSLTVSVGEKVTVSCKSSQSLLYTSSQKNYLAWYQQKPGQSPKLLIYWASTRESGVPDRFTGSGSGTDFTLTITSVKADDLAVYYCQQYYAYPWTFGGGTKLELKRTVAAPSVFIFPPSDEQLKSGTASVVCLLNNFYPREAKVQWKVDNALQSGNSQESVTEQDSKDSTYSLSSTLTLSKADYEKHKVYACEVTHQGLSSPVTKSFNRGEC
notes: Mouse 5D5 variable domains cloned into human Cg1 (z, non-a) and human Ck vectors; also called cMet mAb; wild-type c-Met antibody
Usually EC50 stands for the midpoint of the concentration-response curve. For B4, the EC50 was 0.36 nM with biotin-labeled c-Met [9] and 51.8 nM in assay [10].

B5: cMet-Mut6 half-Ig binding protein (antibody)
heavy: QVQLQQSGPELVRPGASVKMSCRASGYTFTSYWLHWVKQRPGQGLEWIGMIDPSNSDTRFNPNFKDKATLNVDRSSNTAYMLLSSLTSADSAVYYCATYGSYVSPLDYWGQGTSVTVSSASTKGPSVFPLAPSSKSTSGGTAALGCLVKDYFPEPVTVSWNSGALTSGVHTFPAVLQSSGLYSLSSVVTVPSSSLGTQTYICNVNHKPSNTKVDKKVEPKSSDKTHTSPPCPAPELLGGPSVFLFPPKPKDTLMISRTPEVTCVVVDVSHEDPEVKFNWYVDGVEVHNAKTKPREEQYNSTYRVVSVLTVLHQDWLNGKEYKCKVSNKALPAPIEKTISKAKGQPREPQVYTLPPSREEMTKNQVSLTCLVKGFYPSDIAVEWESNGQPENNYKTTPAVLDSDGSFRLRSDLTVDKSRWQQGNVFSCSVMHEALHNHYTQKSLSLSPGK
light: DFMMSQSPSSLTVSVGEKVTVSCKSSQSLLYTSSQKNYLAWYQQKPGQSPKLLIYWASTRESGVPDRFTGSGSGTDFTLTITSVKADDLAVYYCQQYYAYPWTFGGGTKLELKRTVAAPSVFIFPPSDEQLKSGTASVVCLLNNFYPREAKVQWKVDNALQSGNSQESVTEQDSKDSTYSLSSTLTLSKADYEKHKVYACEVTHQGLSSPVTKSFNRGEC
notes: Half-Ig; CH3 P395A, F405R, Y407R, K409D; 100 % half-Ig by SEC; also called cMetHC-Mut6
With B5, the EC50 with biotin-labeled c-Met [11] was determined as 0.46 nM.

B6: ½ hTNFaR Fc (Fc fusion)
chain: LPAQVAFTPYAPEPGSTCRLREYYDQTAQMCCSKCSPGQHAKVFCTKTSDTVCDSCEDSTYTQLWNWVPECLSCGSRCSSDQVETQACTREQNRICTCRPGWYCALSKQEGCRLCAPLRKCRPGFGVARPGTETSDVVCKPCAPGTFSNTTSSTDICRPHQICNVVAIPGNASMDAVCTSTSPTRSMAPGAVHLPQPVSTRSQHTQPTPEPSTAPSTSFLLPMGPSPPAEGSTGDEPKSSDKTHTSPPSPAPELLGGPSVFLFPPKPKDTLMISRTPEVTCVVVDVSHEDPEVKFNWYVDGVEVHNAKTKPREEQYNSTYRVVSVLTVLHQDWLNGKEYKCKVSNKALPAPIEKTISKAKGQPREPQVYTLPPSREEMTKNQVSLTCLVKGFYPSDIAVEWESNGQPENNYKTTPPVLDSDGSFRLYSKLTVDKSRWQQGNVFSCSVMHEALHNHYTQKSLSLSPGK
notes: Half receptor-Fc with Fc-Mut18; 55 % half-Ig by SEC; also called half hTNFaR Fc
Consider B6, for which the kon in assay [12] is 1.9e+06 M⁻¹ s⁻¹.
